Read-outs that look alike come from different tables or passages of the source. Bridge positions count the residues as written; N and C are the ends. Square brackets hold non-standard residues; d marks the D form. Primed or numbered codes have the meaning given here. Azk = residue with azidated side chain, clicked to Pra; Pra′ = residue with alkynyl side chain, clicked to Azk; Cha = N[C@@H](CC1CCCCC1)C(=O)O
Legend:
human β2AR [1] = target: T1, human β2AR (Homo sapiens, UniProt P07550, N187E); assay: Radioligand binding assay (RLA) with human β2AR, 3H-dihydroalprenolol (DHA) as radioligand, isoproterenol (agonist) as cold competitor, in presence and absence of the peptidomimetic
T1 construct: made in house; host or cells: Sf9 insect cells (Bac-to-Bac baculovirus); membrane extracts
Description: β2AR365N constructs were expressed in Sf9 insect cells, using the Bac-to-Bac® Baculovirus Expression System. The membrane extracts were prepared from cells that expressed β2AR. Subsequently, the cell pellet was resuspended in a buffer (1 ml buffer/2×1E7 cells) containing 75 mM Tris pH 7.4, 12.5 mM MgCl2, 1 mM EDTA, Leupeptin and PMSF as protease inhibitors. Afterwards the cells were vortexed and homogenized in ice using a small volume Ultraturrax (6×10 sec). The cells were then centrifuged for 15 min at 16000 rcf, in a pre-cooled centrifuge (4° C.) and resuspended in the previous buffer containing 10% sucrose. Finally, the membranes were again homogenized in ice with the small volume Ultraturrax (3×10 sec). The protein concentration in the membrane fragments was determined using a Pierce BCA Protein Assay Kit and the protein concentration was extrapolated from the Bovine Serum Albumine standard curve.
To perform the radioligand competition binding assays, 96-well plates were used. For the assays on β2AR, the membrane extracts as well as the peptides were prepared in a binding buffer (75 mM Tris pH 7.4, 12.5 mM MgCl2, 1 mM EDTA, 0.2% BSA). The ligand (isoproterenol) and radioligand ([^3H]-dihydroalprenolol) were dissolved in ligand buffer (75 mM Tris pH 7.4, 12.5 mM MgCl2, 1 mM EDTA, 0.2% BSA and 0.1% ascorbic acid), at 1 mM and 2 nM, respectively. A ten-fold dilution series of the ligand was prepared to obtain a dose response curve. For each reaction 100 μl membrane extract, 50 μl ligand, 50 μl peptide or binding buffer containing 1% DMSO and 50 μl of radioligand was added to the V-bottom storage plate, with a total volume of 250 μl per well. Afterwards, the plates were incubated at room temperature for 2 h on a plate shaker (150 rpm). The samples were harvested into filter plates and washed with ice cold washing buffer (75 mM Tris pH 7,4) using the 96-well harvester. The plates were dried for 1 h at 50° C. and then sealed to allow the addition of 30 μl scintillation liquid to each well. Finally, the top of each plate was sealed and the plates were placed in a Wallac MICROBETA® Trilux scintillation counter and incubated for 30 min in the dark.
(§1) After the Microbeta scintillation counter, the experimental data was further analyzed using Graphpad Prism 6.0. After normalization of the raw data, a nonlinear regression was used to fit the data in a one-site binding model, with the total binding set as 100% and the non-specific binding between 0 and 5%. The IC50 values, obtained from the competition curves, were used to determine the shift for each peptide, which is the ratio of IC50 of the agonist test compound on the basal conformation (e.g. IC50 β2AR with no peptidomimetic) versus the active conformation (e.g. IC50 β2AR+peptidomimetic) of the receptor. For certain peptide analogues, a biphasic binding curve was observed and therefore fitted by a two-site model (nonlinear regression), resulting in two IC50 values (IC50Hi and IC50Lo) and a FractionHi, the fraction of receptors in the active state.
Synthesised peptidomimetics were evaluated using a radioligand binding assay (RLA) with a human β2AR, using ^3H-dihydroalprenolol (DHA) as the radioligand and increasing concentrations of isoproterenol (agonist) as cold competitor. In particular, the pharmacological stabilization of the receptor in the active conformation was evaluated by performing the radioligand displacement assay (RLA) in the presence and absence of the peptidomimetics. This validated assay quantifies the pharmacological stabilization of the receptor in the active conformation by comparing the affinities of an agonist for the basal versus the active GPCR conformer (Pardon et al. (2018) Angewandte Chemie International Edition 57, 5292-5295). During the assay, the binding affinity of an orthosteric agonist for the receptor, in particular isoproterenol for human β2AR, in presence and absence of the allosteric peptidomimetic was determined. […]

[2] = target: dopamine 1 receptor (D1R) (Homo sapiens, UniProt P21728); assay: GPCR-radioligand binding assay (RLA) with dopamine 1 receptor (D1R), [3H]-SCH23390 as radiolabelled antagonist, A-77636 (agonist), in presence and absence of the peptidomimetic; settings: Table 19; peptidomimetic at 10 μM; ratio IC50 D1R alone / IC50 D1R + peptidomimetic
dopamine 1 receptor (D1R) (Homo sapiens, UniProt P21728), sequence (P21728 whole entry): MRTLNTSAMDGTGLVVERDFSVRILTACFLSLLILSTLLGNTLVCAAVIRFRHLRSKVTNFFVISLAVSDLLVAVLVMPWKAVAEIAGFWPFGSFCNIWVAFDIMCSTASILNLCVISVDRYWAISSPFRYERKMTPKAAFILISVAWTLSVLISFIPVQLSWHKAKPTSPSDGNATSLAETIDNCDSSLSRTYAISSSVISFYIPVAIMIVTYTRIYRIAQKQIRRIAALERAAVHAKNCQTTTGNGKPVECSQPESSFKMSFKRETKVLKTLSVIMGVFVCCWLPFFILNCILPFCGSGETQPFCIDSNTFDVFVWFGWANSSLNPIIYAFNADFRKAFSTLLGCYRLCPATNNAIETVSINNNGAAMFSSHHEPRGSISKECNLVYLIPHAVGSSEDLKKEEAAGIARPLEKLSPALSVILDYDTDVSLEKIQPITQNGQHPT
Description: For the radioligand assays on D1R a similar buffer, as for β2AR, was used for the ligands, membrane extracts and peptides (+1% DMSO). The competition assay was performed with [^3H]-SCH23390 as radiolabelled antagonist, at a concentration of 2 nM. A ten-fold dilution series of the agonist, A-77636, was prepared to obtain a dose response curve, starting from 100 μM for the receptor alone and 10 μM in the presence of the peptidomimetics. After incubation, the samples were harvested into filter plates, pre-soaked with 0.5% polyethylenimine (PEI), and washed with ice cold washing buffer using the 96-well harvester. After drying in the oven during 1 h and the addition of scintillation liquid, the plates were placed in the MICROBETA® scintillation counter and incubated for 30 min in the dark before reading.
as §1
Peptidomimetics were screened using GPCR-radioligand binding assay (RLA) with dopamine 1 receptor (D1R) binding, using [^3H]-SCH23390 as radiolabelled antagonist, and increasing concentrations of A-77636 (agonist). The half maximal inhibitory concentration (IC50) represents the affinity of the agonist for the receptor. The selectivity is quantified by the shift. “[ ]” denotes cyclic peptides.

human β2AR [3] = target: T2, human β2AR (human, UniProt P07550 2-365); assay: cell-based or functional assay
human β2AR [4] = target: T2, human β2AR; assay: cell-based or functional assay; remark: listed apart in the source
human β2AR [5] = target: T2, human β2AR; assay: cell-based or functional assay; remark: listed apart in the source
human β2AR [6] = target: T2, human β2AR; assay: cell-based or functional assay; remark: listed apart in the source
human β2AR [7] = target: T2, human β2AR; assay: cell-based or functional assay; remark: listed apart in the source
human β2AR [8] = target: T2, human β2AR; assay: cell-based or functional assay; remark: listed apart in the source
human β2AR [9] = target: T2, human β2AR; assay: cell-based or functional assay; remark: listed apart in the source
human β2AR [10] = target: T2, human β2AR; assay: cell-based or functional assay; remark: listed apart in the source
human β2AR [11] = target: T2, human β2AR; assay: cell-based or functional assay; remark: listed apart in the source
[12] = target: dopamine 1 receptor (D1R) (UniProt P21728 1-446, limits assumed); assay: cell-based or functional assay
dopamine 1 receptor (D1R) (UniProt P21728 1-446, limits assumed), sequence (P21728 whole entry): as above

human β2AR [13] = target: T2, human β2AR; assay: cell-based or functional assay; remark: listed apart in the source

Molecule: Ac-KKKFN[PraCRDAzk]IQRMHLRQYEChaL-OH (Ac-KKKFN[Pra′]CRD[Azk]IQRMHLRQYE[Cha]L-OH; triazole 6-10) [compound 51]
- Fraction HI (%) (human β2AR [1]; Table 10, peptidomimetic at 1 μM (printed 511 μM), fraction of receptors in the active state): 54%
- Fraction HI (%) (human β2AR [1]; Table 10, peptidomimetic at 10 μM, fraction of receptors in the active state): 76%
- Shift (human β2AR [1]; Table 10, peptidomimetic at 10 μM, ratio IC50 β2AR alone / + peptidomimetic): 175
- Fraction HI (%) (human β2AR [1]; Table 10, peptidomimetic at 50 μM, fraction of receptors in the active state): 79%
- Shift (human β2AR [1]; Table 10, peptidomimetic at 50 μM, ratio IC50 β2AR alone / + peptidomimetic): 170
- Fraction HI (%) (human β2AR [1]; Table 10, peptidomimetic at 100 μM, fraction of receptors in the active (high affinity) state, two-site model): 77%
- Shift (human β2AR [1]; Table 10, peptidomimetic at 100 μM, ratio IC50 β2AR alone / + peptidomimetic): 345
- Shift (human β2AR [1]; Table 10, ratio IC50 β2AR alone / + peptidomimetic): 21
- Shift [2]: 52

Molecule: FNDCRDIIQRMHLRQYELL [compound 2, Ac-FNDCRDIIQRMHLRQYELL-OH]
- Shift (human β2AR [1]; Table 1, ratio IC50 β2AR alone / IC50 β2AR + peptidomimetic): 6
- Shift [2]: 2

Molecule: Nb80 (VHH)
- IC50 (nM) of isoproterenol, [3H]-DHA RLA, Nb80 present (human β2AR [3]): 9.7 nM
- Shift (human β2AR [3]): 146

Molecule: Ac-FN[Pra′]CRD[Azk]IQRMHLRQYELL-OH (triazole 3-7) [compound 12]
- IC50 (nM) of isoproterenol, [3H]-DHA RLA, peptidomimetic present (human β2AR [4]): 38.9 nM
- IC50 (nM) of isoproterenol, [3H]-DHA RLA, peptidomimetic present (human β2AR [5]): 47.3 nM
- Shift (human β2AR [5]): 20
- Shift (averaged) (human β2AR [6]): 27
- IC50 (nM) of isoproterenol, [3H]-DHA RLA, peptidomimetic present (human β2AR [7]): 37.3 nM
- Shift (human β2AR [7]): 31

Molecule: Ac-RDIIQRMHLRQYELL-OH [compound 16]
- IC50 (nM) of isoproterenol, [3H]-DHA RLA, peptidomimetic present (human β2AR [8]): 614 nM

Molecule: Ac-FNDCRDIIQRMHLRQYELL-OH [compound 2]
- IC50 (nM) of isoproterenol, [3H]-DHA RLA, peptidomimetic present (human β2AR [8]): 118 nM
- IC50 (nM) of isoproterenol, [3H]-DHA RLA, peptidomimetic present (human β2AR [9]): 77.1 nM
- Shift (human β2AR [9]): 13
- IC50 (nM) of isoproterenol, [3H]-DHA RLA, peptidomimetic present (human β2AR [10]): 79.4 nM
- Shift (human β2AR [10]): 10
- Shift (averaged) (human β2AR [6]): 10
- Fraction HI (%) (human β2AR [11]): 21%
- IC50 (nM) of isoproterenol, [3H]-DHA RLA, peptidomimetic present (human β2AR [11]): 124 nM
- Shift (human β2AR [11]): 13
- IC50 (nM) of A-77636, [3H]-SCH23390 RLA, compound 2 at 10 µM [12]: 5.8 nM
- IC50 (nM) of isoproterenol, [3H]-DHA RLA, peptidomimetic present (human β2AR [13]): 97.6 nM
- Shift (human β2AR [13]): 9
